# From US20190345255A1
# Legend:
# [1] = target: Mouse recombinant MGL2 (macrophage galactose binding lectin 2) (mouse); test: competition ELISA on MGL2-coated plate; 10 µg/mL Tn-BSA against 10 µg/mL biotinylated Tn-PS A1 probe 25a (a polysaccharide) as competitor
# [2] = target: Mouse recombinant MGL2 (macrophage galactose binding lectin 2) (mouse); test: competition ELISA on MGL2-coated plate; 10 µg/mL Tn-BSA against 10 µg/mL biotinylated TF-PS A1 probe 25b (a polysaccharide) as competitor
# [3] = target: Tn-BSA (Tn antigen conjugated to bovine serum albumin) (bovine) (UniProt P02769); test: ELISA titration of purified IgM, Tn-BSA coated plates
# Sequence of UniProt P02769 (P02769 25-607 limits assumed, form in doubt): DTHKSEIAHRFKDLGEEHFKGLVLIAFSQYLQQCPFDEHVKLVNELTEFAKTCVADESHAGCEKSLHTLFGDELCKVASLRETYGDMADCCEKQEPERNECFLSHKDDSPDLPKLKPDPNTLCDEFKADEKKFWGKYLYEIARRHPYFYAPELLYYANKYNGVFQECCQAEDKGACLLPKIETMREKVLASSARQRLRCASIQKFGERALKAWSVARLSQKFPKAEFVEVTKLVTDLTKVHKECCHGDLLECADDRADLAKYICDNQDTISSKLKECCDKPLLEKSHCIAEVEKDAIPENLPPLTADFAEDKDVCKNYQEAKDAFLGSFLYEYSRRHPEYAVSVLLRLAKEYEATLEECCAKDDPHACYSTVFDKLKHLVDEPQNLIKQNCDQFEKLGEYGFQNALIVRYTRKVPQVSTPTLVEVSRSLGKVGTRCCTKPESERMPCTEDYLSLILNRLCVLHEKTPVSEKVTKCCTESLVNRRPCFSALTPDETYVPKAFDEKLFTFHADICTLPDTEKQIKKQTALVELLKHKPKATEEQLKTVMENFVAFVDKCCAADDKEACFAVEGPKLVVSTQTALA
Molecule,percent inhibition [1] [%],percent inhibition [2] [%],optical density (O.D.) at 0.3 µg/mL antibody [3] [O.D.]
Tn-BSA (Tn antigen conjugated to bovine serum albumin) (from UniProt P02769 25-607),44,64,–
"Kt-IgM-8 (antibody, V domains shown) VH: QIQLVQSGPELKKPGETVKISCKASGYTFTTYGMSWVKQAPGKGLKWMGWINTYSGVPTYADDFKGRFAFSLETSASTAYLQINNLKNEDTATYFCARHYYGGAYWGQGTLVTVSA VL: QIVLTQSPAIMSASPGEKVTMTCSASSSVSYMHWYQQKSGTSPKRWIYDTSKLASGVPARFSGSGSGTSYSLTISSMEAEDAATYYCQQWSSNPLTFGAGTKLELK",–,–,> 0.2
